Measurements taken from the supplement of paper PMC6379048.
pEC50: −log10 of the molar value.

What was measured:
Assay in all cases: EC50 of free RNA motif oligo competing protein binding to immobilised probe
SYNCRIP = biological target: T1, SYNCRIP (UniProt O60506)
T1 sequence: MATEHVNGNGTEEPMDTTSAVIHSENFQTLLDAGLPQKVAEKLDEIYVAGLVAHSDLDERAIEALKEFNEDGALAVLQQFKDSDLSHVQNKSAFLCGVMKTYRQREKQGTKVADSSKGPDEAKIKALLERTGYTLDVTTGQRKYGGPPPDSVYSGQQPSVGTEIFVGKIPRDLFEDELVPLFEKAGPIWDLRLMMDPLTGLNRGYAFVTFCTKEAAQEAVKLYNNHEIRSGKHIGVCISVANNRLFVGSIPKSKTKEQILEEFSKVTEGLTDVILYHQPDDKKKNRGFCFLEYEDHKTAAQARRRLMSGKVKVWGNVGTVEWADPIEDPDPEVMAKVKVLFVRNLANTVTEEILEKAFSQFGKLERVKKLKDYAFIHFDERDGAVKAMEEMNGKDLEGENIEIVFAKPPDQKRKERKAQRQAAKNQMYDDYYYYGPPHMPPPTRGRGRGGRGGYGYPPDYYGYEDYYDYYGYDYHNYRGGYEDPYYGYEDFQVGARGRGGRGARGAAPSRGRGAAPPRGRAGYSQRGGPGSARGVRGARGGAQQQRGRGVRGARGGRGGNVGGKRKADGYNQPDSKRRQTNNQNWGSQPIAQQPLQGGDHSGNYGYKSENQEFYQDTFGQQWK
Summary of the method: (§1)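 Over three biological replicates and two independent experiments, proteins captured on NHS-Sepharose beads carrying 5′-amino-C6 RNA oligos were quantified by label-free LC-MS/MS and normalised to the control. Capture lasted 30 min at 4°C and followed a 1 h pre-incubation at 4°C of HEK293-FT lysate (2.5 mg protein/well) with the same oligos in free form (0 nM to 30 μM). EC50 was taken from a four-parameter log-logistic fit, and Kd was EC50 corrected by a protein-dependent depletion factor.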

SRRM2 = SRRM2 (UniProt Q9UQ35)
Summary of the method: as §1

PUF60 = biological target: T2, PUF60 (UniProt Q9UHX1)
T2 sequence: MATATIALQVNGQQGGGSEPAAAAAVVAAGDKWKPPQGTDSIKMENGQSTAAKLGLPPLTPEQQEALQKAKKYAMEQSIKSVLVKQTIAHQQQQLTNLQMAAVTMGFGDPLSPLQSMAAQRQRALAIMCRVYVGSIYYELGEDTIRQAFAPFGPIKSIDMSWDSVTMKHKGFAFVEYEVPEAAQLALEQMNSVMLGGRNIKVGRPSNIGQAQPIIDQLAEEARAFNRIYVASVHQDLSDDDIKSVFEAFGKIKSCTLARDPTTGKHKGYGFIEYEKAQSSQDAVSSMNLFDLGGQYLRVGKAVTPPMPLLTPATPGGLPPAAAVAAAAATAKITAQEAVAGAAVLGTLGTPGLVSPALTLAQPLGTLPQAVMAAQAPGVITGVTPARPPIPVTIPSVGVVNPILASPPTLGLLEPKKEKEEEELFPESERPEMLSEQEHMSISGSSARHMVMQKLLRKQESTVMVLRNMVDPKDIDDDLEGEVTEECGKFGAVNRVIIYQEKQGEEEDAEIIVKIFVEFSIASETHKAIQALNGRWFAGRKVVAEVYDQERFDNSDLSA
Summary of the method: as §1

IGF2BP2 = IGF2BP2 (UniProt Q9Y6M1)
Summary of the method: as §1

MRPL1 = MRPL1 (UniProt Q9BYD6)
Summary of the method: as §1

MRPS18A = MRPS18A (UniProt Q9NVS2)
Summary of the method: as §1

MRPS22 = MRPS22 (UniProt P82650)
Summary of the method: as §1

MYEF2 = biological target: T3, MYEF2 (UniProt Q9P2K5)
T3 sequence: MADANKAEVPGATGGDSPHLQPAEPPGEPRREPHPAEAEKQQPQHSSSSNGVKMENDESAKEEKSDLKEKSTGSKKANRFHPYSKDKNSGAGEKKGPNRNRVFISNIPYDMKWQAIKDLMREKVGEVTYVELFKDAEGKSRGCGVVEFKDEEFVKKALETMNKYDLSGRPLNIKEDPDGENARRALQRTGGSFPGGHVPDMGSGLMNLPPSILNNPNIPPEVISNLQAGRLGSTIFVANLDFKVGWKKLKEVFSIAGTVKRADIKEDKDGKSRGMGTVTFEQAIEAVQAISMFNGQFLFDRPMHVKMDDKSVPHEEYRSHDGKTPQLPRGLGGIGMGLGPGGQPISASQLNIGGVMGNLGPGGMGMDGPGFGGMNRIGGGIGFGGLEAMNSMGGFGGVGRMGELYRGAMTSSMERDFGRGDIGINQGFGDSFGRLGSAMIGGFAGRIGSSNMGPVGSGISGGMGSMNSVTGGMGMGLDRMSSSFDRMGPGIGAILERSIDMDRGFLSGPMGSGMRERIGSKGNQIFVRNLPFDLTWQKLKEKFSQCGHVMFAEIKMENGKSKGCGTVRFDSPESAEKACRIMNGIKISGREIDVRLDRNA
Summary of the method: as §1

MRPS18B = MRPS18B (UniProt Q9Y676)
Summary of the method: as §1

Chain of SRRM2 (Q9UQ35 whole entry): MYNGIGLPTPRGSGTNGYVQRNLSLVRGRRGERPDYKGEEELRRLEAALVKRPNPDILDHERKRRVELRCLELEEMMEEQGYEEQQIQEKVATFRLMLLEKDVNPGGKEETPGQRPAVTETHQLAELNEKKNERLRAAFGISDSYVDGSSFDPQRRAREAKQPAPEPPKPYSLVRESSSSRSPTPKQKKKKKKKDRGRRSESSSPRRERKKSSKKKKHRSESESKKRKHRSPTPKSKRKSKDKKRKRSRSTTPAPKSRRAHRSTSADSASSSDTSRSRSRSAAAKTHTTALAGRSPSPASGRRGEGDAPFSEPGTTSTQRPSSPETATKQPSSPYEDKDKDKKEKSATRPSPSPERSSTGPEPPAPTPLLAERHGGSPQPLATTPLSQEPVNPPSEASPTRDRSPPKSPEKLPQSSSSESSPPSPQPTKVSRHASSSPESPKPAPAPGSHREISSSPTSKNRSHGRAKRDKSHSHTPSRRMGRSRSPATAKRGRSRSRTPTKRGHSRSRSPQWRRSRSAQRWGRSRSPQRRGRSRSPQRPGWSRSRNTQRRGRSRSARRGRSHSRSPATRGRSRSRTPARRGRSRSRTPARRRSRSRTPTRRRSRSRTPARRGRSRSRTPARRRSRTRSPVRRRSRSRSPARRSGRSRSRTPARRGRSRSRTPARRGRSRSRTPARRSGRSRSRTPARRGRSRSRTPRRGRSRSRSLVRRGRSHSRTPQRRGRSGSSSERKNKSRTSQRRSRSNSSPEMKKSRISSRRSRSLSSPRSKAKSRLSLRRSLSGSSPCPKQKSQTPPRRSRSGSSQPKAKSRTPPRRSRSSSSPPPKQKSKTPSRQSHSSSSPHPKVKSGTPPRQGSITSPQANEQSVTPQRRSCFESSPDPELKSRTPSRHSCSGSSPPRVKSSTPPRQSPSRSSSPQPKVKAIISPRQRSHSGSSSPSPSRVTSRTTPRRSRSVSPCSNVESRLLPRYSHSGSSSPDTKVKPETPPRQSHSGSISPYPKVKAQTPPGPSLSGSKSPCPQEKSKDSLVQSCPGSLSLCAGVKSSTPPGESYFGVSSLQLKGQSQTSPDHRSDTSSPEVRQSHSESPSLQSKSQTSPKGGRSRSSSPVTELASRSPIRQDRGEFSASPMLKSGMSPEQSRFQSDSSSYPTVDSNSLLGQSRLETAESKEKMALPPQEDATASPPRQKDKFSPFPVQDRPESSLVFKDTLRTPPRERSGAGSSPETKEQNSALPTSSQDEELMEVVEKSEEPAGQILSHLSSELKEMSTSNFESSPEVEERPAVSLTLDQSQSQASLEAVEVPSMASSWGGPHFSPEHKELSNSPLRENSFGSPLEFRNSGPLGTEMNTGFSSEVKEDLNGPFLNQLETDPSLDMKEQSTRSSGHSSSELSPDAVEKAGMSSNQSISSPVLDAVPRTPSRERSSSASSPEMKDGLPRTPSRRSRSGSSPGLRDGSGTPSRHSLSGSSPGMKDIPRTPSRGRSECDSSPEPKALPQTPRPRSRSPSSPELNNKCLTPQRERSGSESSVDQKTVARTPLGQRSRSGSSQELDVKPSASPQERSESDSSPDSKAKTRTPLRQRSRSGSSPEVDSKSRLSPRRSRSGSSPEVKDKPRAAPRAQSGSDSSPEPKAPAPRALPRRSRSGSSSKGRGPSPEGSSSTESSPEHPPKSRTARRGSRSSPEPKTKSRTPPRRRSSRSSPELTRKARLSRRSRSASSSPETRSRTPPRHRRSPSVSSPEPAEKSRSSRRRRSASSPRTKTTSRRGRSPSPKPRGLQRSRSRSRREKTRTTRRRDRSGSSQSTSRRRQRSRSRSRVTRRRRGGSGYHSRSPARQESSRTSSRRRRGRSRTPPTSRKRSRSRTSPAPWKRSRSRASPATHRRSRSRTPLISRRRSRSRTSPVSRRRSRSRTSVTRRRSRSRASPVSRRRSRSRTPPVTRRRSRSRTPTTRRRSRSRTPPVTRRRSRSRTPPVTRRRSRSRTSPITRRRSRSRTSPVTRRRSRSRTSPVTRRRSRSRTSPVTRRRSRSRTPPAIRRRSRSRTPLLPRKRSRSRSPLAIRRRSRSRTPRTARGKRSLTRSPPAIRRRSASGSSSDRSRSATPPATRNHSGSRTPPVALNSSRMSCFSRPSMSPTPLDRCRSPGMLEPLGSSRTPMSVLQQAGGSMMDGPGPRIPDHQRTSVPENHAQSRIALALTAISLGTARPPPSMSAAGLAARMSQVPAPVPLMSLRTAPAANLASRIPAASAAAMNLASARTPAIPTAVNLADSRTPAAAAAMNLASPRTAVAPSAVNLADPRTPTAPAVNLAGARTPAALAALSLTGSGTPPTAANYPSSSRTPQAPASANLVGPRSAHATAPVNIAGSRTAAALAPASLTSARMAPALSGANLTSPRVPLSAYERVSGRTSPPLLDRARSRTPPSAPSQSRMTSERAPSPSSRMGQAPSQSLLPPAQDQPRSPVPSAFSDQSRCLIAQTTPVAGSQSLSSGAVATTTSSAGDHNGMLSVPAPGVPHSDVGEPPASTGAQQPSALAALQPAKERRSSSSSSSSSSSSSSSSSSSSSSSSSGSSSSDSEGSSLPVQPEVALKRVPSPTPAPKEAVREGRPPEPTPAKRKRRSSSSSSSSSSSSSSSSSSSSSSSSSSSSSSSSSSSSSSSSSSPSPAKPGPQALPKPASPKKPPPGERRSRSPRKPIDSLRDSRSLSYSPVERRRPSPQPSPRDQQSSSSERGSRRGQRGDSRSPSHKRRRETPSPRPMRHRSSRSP
Chain of IGF2BP2 (Q9Y6M1 whole entry): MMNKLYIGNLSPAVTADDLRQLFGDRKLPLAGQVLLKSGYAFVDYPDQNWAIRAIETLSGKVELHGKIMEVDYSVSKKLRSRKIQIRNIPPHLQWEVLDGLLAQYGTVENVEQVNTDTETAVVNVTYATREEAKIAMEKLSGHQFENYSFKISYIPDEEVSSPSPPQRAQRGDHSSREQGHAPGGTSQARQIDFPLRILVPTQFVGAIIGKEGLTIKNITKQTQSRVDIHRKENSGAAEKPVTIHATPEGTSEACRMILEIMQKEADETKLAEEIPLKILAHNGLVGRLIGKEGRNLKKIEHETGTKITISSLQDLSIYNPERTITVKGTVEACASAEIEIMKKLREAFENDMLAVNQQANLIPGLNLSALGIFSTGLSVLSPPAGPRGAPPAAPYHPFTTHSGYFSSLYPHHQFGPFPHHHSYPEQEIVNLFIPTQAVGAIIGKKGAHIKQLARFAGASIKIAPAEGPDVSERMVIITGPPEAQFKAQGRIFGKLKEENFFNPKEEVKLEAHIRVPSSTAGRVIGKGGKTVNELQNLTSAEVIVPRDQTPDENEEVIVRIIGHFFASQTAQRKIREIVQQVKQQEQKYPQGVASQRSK

AAUAAA
pEC50 (SYNCRIP): 5.73 | pEC50 (SRRM2): 5.98 | pEC50 (PUF60): 6.05

CUGUCCU
pEC50 (IGF2BP2): 5.53 | pEC50 (MRPL1): 6.59 | pEC50 (MRPS18A): 6.99

UAUUUAU
pEC50 (MRPS22): 7.07 | pEC50 (MYEF2): 5.42 | pEC50 (MRPS18B): 7.29
